Test results published in patent publication US20100028952A1, “FERMENTATION AND PURIFICATION OF ACTINOMADURA CHROMOPROTEIN AND RELATED SPECIES” (WYETH, priority 2006, published 2010).

Legend:
histone H1 in HeLa cells = assay: Digestion of histone H1 in HeLa cells, immunoblot; type: cell-based; settings: HeLa cells incubated overnight at 37° C.; anti-histone H1 immunoblot
Description: To study whether the digestion of histones by the chromoprotein occurs in intact cells, HeLa cells were incubated with compounds overnight at 37° C. Cell lysates were analysed by SDS-PAGE and protein immunoblotting using anti-histone H1 antibodies (Santa Cruz Biotechnologies). […] This activity can contribute to antitumor effects by digesting histones in chromatin, making the DNA more accessible for cleavage. This appears to be a unique activity of the chromoprotein enediynes.

Histone H1 = assay: Digestion of histone H1, SDS-PAGE; type: biochemical; settings: for digestion of histone H1: 50 mM Tris-Cl, pH 7.5 overnight at 37° C.
Description: Histone H1 was incubated with various concentrations of the chromoprotein in 50 mM Tris-Cl, pH 7.5 overnight at 37° C. (FIG. 29) Digestions of histone were assessed by SDS-polyacrylamide gel electrophoresis (SDS-PAGE), followed by staining of the gel with GelCode Blue (Pierce Biotechnology, Inc, Rockford, Ill.).

Human PGP (MDR1) = biological target: T1, Human PGP (MDR1) (Homo sapiens, UniProt P08183); assay: Transport by P-GP (MDR-1); type: cell-based; settings: result in words
T1 construct: cells expressing clinically relevant levels of MDR1 (KB-8-5 cells) remain sensitive to the complex; endogenous in cells; host or cells: KB (P-GP -), KB-8-5 (+), KB-V-1 (+++)
Source text: Human PGP (MDR1) is an ATP-dependent efflux pump which is capable of transporting many drugs across cell membranes. High level expression of this protein has been linked to multiple drug resistance of tumors. […] The protein component of the chromoprotein probably protects the chromophore from drug efflux mediated by MDR1, and may be responsible for the beneficial antitumor effects in colon cell lines which often express MDR1.

HN5 = assay: Potency against human tumor cell lines; type: cell-based; settings: HN5, Head & Neck
Supercoiled φX174 DNA = assay: DNA cleavage assay, gel electrophoresis; type: biochemical
Description: Supercoiled φX174 DNA was incubated with various concentrations of the 21G792 chromoprotein and analyzed by gel electrophoresis. […] Nicked refers to single strand breaks in the DNA and linear refers to double strand breaks.

[1] = Toxicity of the chromoprotein in nude mice; type: in vivo; settings: except for bone marrow suppression
Description: 21G792 chromoprotein is well-tolerated in nude mice. Specifically, saline control vehicle or the chromoprotein in various doses was administered intravenously to six nude mice on days 1, 5, and 9.

[2] = tested on: HCT116 colon carcinoma cells; assay: Uptake of FITC-tagged chromoprotein and apoprotein, fluorescent microscopy / flow cytometry; type: cell-based; settings: for competition of label by unlabeled reagent: 10-fold excess of unlabeled reagent
Description: To determine the mechanism by which the chromoprotein enters cells and exerts its biological activity, the chromoprotein was labeled with a fluorescent tag (FITC) using EZ-Label fluorescent labeling kit (Pierce Biotechnology), according to the manufacturer's recommendation. […] Uptake of labeled material by HCT116 colon carcinoma cells was studied by fluorescent microscopy. Optimum incubation time with cells was 3-6 hours. […] Even though nuclear accumulation is low, the amount is most likely sufficient for biological activity given the potency of the complex.
To determine whether an intact complex of chromophore and apoprotein is required for cellular and nuclear entry, the chromoprotein and apoprotein were labeled with FITC. Uptake of labeled material was studied by fluorescent microscopy. Uptake was similar for both apoprotein and chromoprotein.
To determine whether the entry of chromoprotein into cells is mediated by a saturable (e.g. cell surface receptor-dependent) process, HCT116 cells were incubated with FITC-labeled chromoprotein (FIG. 37, right panel) or apoprotein (FIG. 37, left panel) in the absence or presence of 10-fold excess of unlabeled reagent (unlabelled chromoprotein or apoprotein, respectively). Cells were analysed by fluorescent microscopy (left) or flow cytometry (right). […] Furthermore, a single homogeneous peak observed in flow cytometry histograms indicated uniform uptake of labeled reagent by all cells. Numbers in the histograms are mean channel numbers (FITC fluorescence).
Other means by which a protein complex can enter cells is pinocytosis, where caveolae in the surface of the cell pinch off to form pinosomes that are free within the cytoplasm of the cell. Since pinocytosis is an energy-dependent process that requires a functional tubulin cytoskeletal network, we examined the effect of sodium azide, an energy uncoupling agent and nocodazole, an agent which disrupts the tubulin cytoskeleton on cellular uptake. HCT116 cells were treated with FITC-labeled apoprotein in the absence or presence of sodium azideor nocodazole. […] Since the data appears to rule out a receptor-mediated process, pinocytosis is most likely involved.

[3] = tested on: E. coli BR513-80 SOS response; assay: Biochemical induction assay (BIA); type: cell-based; settings: purified, approximately 90% pure
Source text: The biochemical induction assay identifies DNA damaging agents which induce the SOS response in E. coli BR513-80. BR513-80 contains a translational fusion of the λ PL promoter and the lacZ gene. The λ PL promoter, activated as part of the SOS response after exposure to DNA damaging agents, drives the synthesis of β-galactosidase. β-galactosidase activity is detected by the cleavage of the 6-bromo-2-naphthyl-β-D-galactopyranoside (BNG) which reacts with Fast Blue RR salt to produce a red/purple color. […]
A BR513-80 overnight culture is diluted 1:20 in LBE broth or equivalent, and the absorbance of the diluted culture is measured at 600 nm. The absorbance of the undiluted culture is calculated, and 5.7 is divided by this value to obtain the volume (in mL) of culture to use as an inoculum per 40 mL soft agar. […] The calculated culture volume is swirled in soft agar, poured evenly over the base layer (40 ml per Nunc BioAssay plate, or 20 mL per 150 mm petri dish), and allowed to solidify for at least 10-15 minutes. […]
A dye/substrate overlay is prepared by dissolving 87 mg Fast Blue RR salt and 13 mg BNG in 2 mL DMSO and mixing with 40 mL melted 1% soft agar. […] The induction response is scored after 15-20 minutes at room temperature or after 10 min. at about 37° C. […]

[4] = tested on: histones H1, H2A, H2B, H3, and H4; assay: Specificity of protein digestion by the chromoprotein; type: biochemical; settings: myelin basic protein, bovine serum albumin
BT474 = assay: Potency against human tumor cell lines; type: cell-based; settings: BT474, Breast
LoVo = assay: Potency against human tumor cell lines; type: cell-based; settings: Colon
MDA-MB-361 = assay: Potency against human tumor cell lines; type: cell-based; settings: MDA-MB-361, Breast
SW620 = assay: Potency against human tumor cell lines; type: cell-based; settings: SW620, Colon
MCF-7 = assay: Potency against human tumor cell lines; type: cell-based; settings: MCF-7, Breast
p21+/+ cells = assay: In vitro anti-tumor activity, isogenic pair of cell lines; type: cell-based; settings: p21+/+ isogenic cell line; Mean + SD, n = 3
Source text: (§1) The p53/p21 checkpoint monitors the integrity of the genome and blocks cell cycle progression in the event of DNA damage. Disruption of the checkpoint by deletion of the p21 gene results in failure to arrest in response to DNA damage ultimately leading to cell death through apoptosis. Since loss of this checkpoint is a hallmark of cancer cells, an isogenic pair of cell lines, wherein one pair of the cell line (p21+/+) has an intact p21 gene and one member (p21−/−) has a deletion in the p21 gene, can be used to screen for potential anti-tumor compounds by identifying molecules that preferentially induce apoptosis in p21-deficient cells.
(§2) The Actinomadura sp. 21G792 chromoprotein was added to an isogenic pair of cell lines (p21+/+ and p21−/−).

p21−/− cells = assay: as above; type: cell-based; settings: p21−/− isogenic cell line; Mean + SD, n = 3
Source text: as §1, §2

[5] = tested on: p53/p21 checkpoint in HCT116 (p21+/+ and p21−/−) cells; assay: Induction of the G1/S checkpoint, protein immunoblot; type: cell-based, human
Source text: HCT116 (p21+/+ and p21−/−) cells were exposed to the chromoprotein at various concentrations. […] Activation of the DNA damage checkpoint by the Actinomadura sp. […] 21G792 chromoprotein as shown by the cleavage of poly ADP ribose […] (PARP) (FIG. 23B). This is consistent with the lower IC50 value in the p21−/− cells.

[6] = tested on: human tumor cell line panel; assay: Human tumor cell line panel (whole panel); type: cell-based; settings: result in words

T1 sequence (P08183 whole entry): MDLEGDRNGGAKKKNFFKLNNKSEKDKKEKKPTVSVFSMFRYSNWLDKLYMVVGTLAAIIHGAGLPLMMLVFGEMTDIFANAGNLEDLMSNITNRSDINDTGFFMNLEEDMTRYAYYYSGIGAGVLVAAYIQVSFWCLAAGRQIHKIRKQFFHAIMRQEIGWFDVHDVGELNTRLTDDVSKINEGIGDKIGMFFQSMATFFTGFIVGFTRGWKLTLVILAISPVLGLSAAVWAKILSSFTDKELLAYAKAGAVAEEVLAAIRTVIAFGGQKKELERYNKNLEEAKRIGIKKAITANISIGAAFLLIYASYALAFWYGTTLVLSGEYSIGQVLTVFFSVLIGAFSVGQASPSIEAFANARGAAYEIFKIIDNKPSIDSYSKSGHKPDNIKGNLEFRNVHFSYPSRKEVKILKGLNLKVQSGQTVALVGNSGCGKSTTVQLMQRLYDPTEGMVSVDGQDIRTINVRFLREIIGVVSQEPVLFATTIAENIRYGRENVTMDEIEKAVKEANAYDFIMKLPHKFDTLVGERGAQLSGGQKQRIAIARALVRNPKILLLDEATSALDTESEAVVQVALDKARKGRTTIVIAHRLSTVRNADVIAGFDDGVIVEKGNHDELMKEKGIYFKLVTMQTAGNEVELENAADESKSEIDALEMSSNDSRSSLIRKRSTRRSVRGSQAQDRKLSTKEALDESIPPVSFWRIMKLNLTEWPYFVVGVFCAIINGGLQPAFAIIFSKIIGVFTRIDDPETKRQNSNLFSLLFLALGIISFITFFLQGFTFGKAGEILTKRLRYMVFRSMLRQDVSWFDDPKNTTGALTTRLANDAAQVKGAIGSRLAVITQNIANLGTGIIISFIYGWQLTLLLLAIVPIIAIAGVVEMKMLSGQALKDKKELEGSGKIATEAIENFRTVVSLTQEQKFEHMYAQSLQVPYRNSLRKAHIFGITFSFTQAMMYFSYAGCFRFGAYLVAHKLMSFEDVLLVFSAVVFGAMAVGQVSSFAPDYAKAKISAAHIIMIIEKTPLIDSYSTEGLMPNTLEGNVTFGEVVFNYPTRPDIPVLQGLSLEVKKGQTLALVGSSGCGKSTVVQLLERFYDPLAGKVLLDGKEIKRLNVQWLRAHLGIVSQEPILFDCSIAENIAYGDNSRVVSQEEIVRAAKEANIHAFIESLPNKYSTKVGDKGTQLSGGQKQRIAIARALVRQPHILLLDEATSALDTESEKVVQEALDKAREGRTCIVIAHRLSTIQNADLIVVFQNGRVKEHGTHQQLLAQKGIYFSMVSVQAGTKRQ

bleomycin
histone H1 in cells (histone H1 in HeLa cells): No effect

calicheamicin [reference compound]
histone H1 in cells (histone H1 in HeLa cells): No effect
digestion of histone H1 (Histone H1): did not cleave histone H1
MDR1 substrate (Human PGP (MDR1)): good substrate for MDR1

B1: Actinomadura sp. 21G792 chromoprotein: non-covalent complex of an apoprotein and a chromophore comprising a nine-membered enediyne, produced by Actinomadura sp. 21G792 (NRRL 30778) (protein)
chain: DTVTVNYDCVGYPSDIAVTIDAPATAGVGDTATFEVSSVVTTGAPQDLPAGEVVTDMAIVVGGAQSGTITASGLTNEATPAGQPVNMVGGEAQITFTSAGSVTFTPSTTTQVDNGAQCTVVGEAPVGATTVVS
IC50 (HN5): 4 µg/mL
requirement of a reducing agent for DNA cleavage (Supercoiled φX174 DNA; dithiothreitol, DTT): did not require a reducing agent
DNA cleavage (Supercoiled φX174 DNA; various concentrations, reaction progressed over 24 hours): induced single strand breaks and double strand breaks
tolerability in nude mice [1]: well-tolerated
competition of label by unlabeled reagent [2]: No competition of label was observed
biological activity upon FITC labeling ([2]; FITC labeled): No loss of biological activity
uptake of labeled material, apoprotein versus chromoprotein ([2]; FITC labeled): similar
cellular localisation of label ([2]; FITC labeled, fluorescent microscopy): Most of the label appeared in the cytoplasm, although weak staining was also observed in the nucleus
histone H1 in cells (histone H1 in HeLa cells): reduced histone H1 in cells
BIA activity [3]: BIA active
cleavage of other proteins [4]: cleaves other basic proteins such as myelin basic protein, but not neutral/acidic proteins such as bovine serum albumin
IC50 (BT474): 47 µg/mL
IC50 (LoVo): 2 µg/mL
effect of free radical scavengers and protease inhibitors on digestion of histones (Histone H1; 30 mM glutathione or N-acetyl cysteine, protease inhibitors): inhibited by the addition of free radical scavengers, 30 mM glutathione or N-acetyl cysteine (not shown), but not by protease inhibitors
digestion of histone H1 (Histone H1): digestion of Histone H1
effect of DNA on digestion of histone H1 (Histone H1; addition of DNA): inhibited by addition of DNA
IC50 (MDA-MB-361): 5 µg/mL
IC50 (SW620): 2 µg/mL
IC50 (MCF-7): 2 µg/mL
MDR1 substrate (Human PGP (MDR1)): poor MDR1 substrate
IC50 (p21+/+ cells): 90 + 32 μg/ml
IC50 (p21−/− cells): 7 + 2 μg/ml
induction of the p21 protein ([5]; HCT116 p21+/+ and p21−/−): Induction of the p21 protein was seen in the p21+/+ cells only
induction of apoptosis (PARP cleavage) ([5]; p21−/− compared with p21+/+ cells): induction of apoptosis was preferentially observed in p21−/− cells compared with p21+/+ cells

B2: apoprotein: 21G792 apoprotein (SEQ ID NO:150), protein component of the chromoprotein without chromophore (protein)
chain: B1 chain
modifications: Actinomadura sp. 21G792
competition of label by unlabeled reagent [2]: No competition of label was observed
uptake of labeled material, apoprotein versus chromoprotein ([2]; FITC labeled): similar
effect of sodium azide or nocodazole on uptake of label ([2]; FITC-labeled, nocodazole 100 nM): Both treatments inhibited uptake of label
digestion of histone H1 (Histone H1): no activity
in vitro anti-tumor activity [6]: inactive
